Experiments:
αVβ3 integrin [1] = target: αVβ3 integrin (UniProt P06756)
αVβ3 integrin [2] = target: αVβ3 integrin (UniProt P06756); test: BLI; Octet Red 96; biotinylated αVβ3 integrin on streptavidin (SAX) biosensors, usGNPs in solution, association 40-60 min; 50 mM HEPES pH 7.4, 150 mM NaCl, 5 mM KCl, 0.1% BSA, 0.05% Tween 20, 50 µM CaCl2; 30 °C; Kd approximated from the response at equilibrium against usGNP concentration, fit to the Hill equation
αVβ3 integrin [3] = target: αVβ3 integrin (UniProt P06756); remark: listed apart in the source

| Substance | Kd (αVβ3 integrin [2]) | uptake by U-87 MG cells (high αVβ3 integrin), 1 × 10^8 particles per cell, 60 min, internalised gold by ICP-MS (usGNPs per cell) (αVβ3 integrin [3]) | cytotoxicity on αVβ3 integrin expressing U-87 MG cells (XTT viability, 3 days), IC50 in DM1 equivalent concentration; DM1-usGNP without cRGD 25.2 nM (αVβ3 integrin [1]) |
| --- | --- | --- | --- |
| DM1-cRGD-usGNP, (α-Galactose-C2)135(PEG(8)COOH)115(cRGD)20(DM1)20@Au2000 |  |  | 5 nM |
| LowcRAD-usGNP, (α-Galactose-C2)145(PEG(8)COOH)125(cRAD)20@Au2000 |  | 1.6e+06 |  |

Further lines, with some results ahead:

| Kd (αVβ3 integrin [2]) | uptake by U-87 MG cells (high αVβ3 integrin), 1 × 10^8 particles per cell, 60 min, internalised gold by ICP-MS (usGNPs per cell) (αVβ3 integrin [3]) | Substance | cytotoxicity on αVβ3 integrin expressing U-87 MG cells (XTT viability, 3 days), IC50 in DM1 equivalent concentration; DM1-usGNP without cRGD 25.2 nM (αVβ3 integrin [1]) |
| --- | --- | --- | --- |
| 0.0292 nM | 1.67e+07 | HighcRGD-usGNP, (α-Galactose-C2)145(PEG(8)COOH)85(cRGD)60@Au2000 |  |
|  | 2.7e+06 | HighcRAD-usGNP, (α-Galactose-C2)145(PEG(8)COOH)85(cRAD)60@Au2000 |  |
| 3.2 nM | 4.9e+06 | LowcRGD-usGNP, (α-Galactose-C2)145(PEG(8)COOH)125(cRGD)20@Au2000 |  |

From article PMC9696180
